{
  "source": "patent US20250346643A1",
  "about": "“TROPOMYOSIN KINASE RECEPTOR (TRK) LIGANDS AS THERAPEUTICS TO SUPPORT LIVER REGENERATION” (Vanderbilt University, priority 2024, published 2025)",
  "assay": "Storage stability of solubilized recombinant NTF3 at -80 C",
  "type": "physicochemical",
  "details": "solubilized in 0.1% BSA/PBS, stored at -80 C",
  "protocol": "Treatment with recombinant NTF3. Four months old mice were injected via tail vein for 4 consecutive days with recombinant NTF3 (STEMCELL technology, Vancouver, Canada; cat. 78074, lots 1000070683, 1000077434) diluted in sterile 0.9% saline (0.9% NaCl) or vehicle only. Mice were weighed daily and recombinant NTF3 given at 20 ng/g body weight or 100 ng/g body weight, respectively. Lyophilized NTF3 was solubilized in 0.1% BSA/PBS (bovine serum albumin, Sigma-Aldrich, St. Louis, MO; A3059) and stored at −80° C. until use.\nHuman HepG2 and mouse AML12 cells were grown in 6-well plates. Cells were treated with NTF3 (20 ng/ml) purchased from STEMCELL technologies, Vancouver, Canada (cat. 78074), R&D Systems, Minneapolis, MN (267-N3), Gibco, Waltham, MA (PHC7036) and/or Loxo-195 (5-10 nM) (Selleckchem, Houston, TX; S8636) in complete growth media without L-glutamine for 2 hours. Lyophilized NTF3 was solubilized with sterile filtered PBS supplemented with 0.1% BSA, aliquoted and stored at −80° C. until use. […] Protein concentration of supernatants were determined by Direct Detect Spectrophotometer (MilliporeSigma, Burlington, MA). […]\nImmunoblotting. […] Protein concentration of supernatants was determined by Direct Detect Spectrophotometer (MilliporeSigma, Burlington, MA). […] The protein concentration of supernatants was determined by a Direct Detect® spectrophotometer (MilliporeSigma, Burlington, MA). […]",
  "data": [
    {"substance": "NTF3: neurotrophin-3, recombinant protein; HSC-derived hepatocyte mitogen, ligand of TRKA, TRKB, TRKC", "values": [
      {"measurement": "storage time at which activity and protein concentration declined significantly", "result": "approximately 3 months"}
    ]}
  ]
}
